According to patent US20160340421A1 (Regeneron, published 2016):
Ends that are not written are not given here. * marks the point of attachment. Biotin = O=C1N[C@H]2[C@H](CS[C@H]2CCCCC(=O)*)N1

Key:
Experiment in all cases: Luminex peptide beads
[1] = molecular target: T1, hGDF8 peptide 2 (1-18), N-terminal biotinylated (human, cysteine pairing not given here)
T1 construct: also called peptide 2 N-term
T1 peptide: Biotin-DFGLDCDEHSTESRCCRY
Source text: (§1) Fourteen peptides (Table 10) were generated from mature hGDF8 (SEQ ID NO:340). Unmodified peptides, N-terminal biotinylated peptides (N-term), or C-terminal biotinylated peptides (C-term) were used to test and localize antibody binding. Full-length hGDF8, hGDF11 and unmodified peptides were each individually amine-coupled to xMAP® Multi-Analyte COOH Microspheres (or beads). Each of the biotinylated peptides was bound to xMAP® Multi-Analyte LumAvidin Microspheres. Peptide-bound beads suspension were then mixed with an equal volume of blocking buffer (PBS, 1%13SA, 0.05% Tween20, 0.05% Sodium azide) and then distributed into a 96 well filter plate (Millipore, MULTISCREEN® BV). Control and test anti-hGDF8 antibodies, at 2.5 μg/ml were then added to the peptide-bound beads suspension and were allowed to bind to the beads at RT, overnight. The antibody-incubated beads were then washed twice with PBST (PBS+0.05% Tween20) and incubated with either Phycoerythrin (PE) conjugated anti-hFC or PE-conjugated anti-mFC antibodies at RT for 45 min. The beads were washed again and the antibody binding signal to various peptides were detected with either LUMINEX® 100™ or 200™ instruments.

[2] = molecular target: T2, hGDF8 peptide 4 (48-65), unmodified (human)
T2 peptide: EFVFLQKYPHTHLVHQAN
Source text: as §1

[3] = molecular target: T3, hGDF8 peptide 12 (73-90), C-terminal biotinylated (human, cysteine pairing not given here)
T3 construct: also called peptide 12 C-term
T3 peptide: CCTPTKMSPINMLYFNGK-biotin
Source text: as §1

[4] = molecular target: T4, hGDF8 peptide 13 (75-105), unmodified (human)
T4 peptide: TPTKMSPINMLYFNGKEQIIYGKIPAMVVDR
Source text: as §1

[5] = molecular target: T5, hGDF8 peptide 10 (56-72), C-terminal biotinylated (human)
T5 construct: also called peptide 10 C-term
T5 peptide: PHTHLVHQANPRGSAGP-biotin
Source text: as §1

[6] = molecular target: T6, hGDF8 peptide 3 (17-42), N-terminal biotinylated (human, N-terminal biotin)
T6 construct: also called peptide 3 N-term
T6 peptide: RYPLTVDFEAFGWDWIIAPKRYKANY
Source text: as §1

[7] = molecular target: T7, hGDF8 peptide 9 (56-65), C-terminal biotinylated (human)
T7 construct: also called peptide 9 C-term
T7 peptide: PHTHLVHQAN-biotin
Source text: as §1

[8] = molecular target: T8, hGDF8 peptide 3 (17-42), C-terminal biotinylated (human, C-terminal biotin)
T8 construct: also called peptide 3 C-term
T8 peptide: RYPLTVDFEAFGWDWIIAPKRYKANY
Source text: as §1

[9] = molecular target: T9, hGDF8 peptide 14 (91-105), N-terminal biotinylated (human)
T9 construct: also called peptide 14 N-term
T9 peptide: Biotin-EQIIYGKIPAMVVDR
Source text: as §1

[10] = molecular target: T10, hGDF8 peptide 1 (1-14), N-terminal biotinylated (human)
T10 construct: also called peptide 1 N-term
T10 peptide: Biotin-DFGLDCDEHSTESR
Source text: as §1

[11] = molecular target: T11, hGDF8 peptide 11 (65-72), unmodified (human)
T11 peptide: NPRGSAGP
Source text: as §1

[12] = molecular target: T12, hGDF8 peptide 12 (73-90), N-terminal biotinylated (human, cysteine pairing not given here)
T12 construct: also called peptide 12 N-term
T12 peptide: Biotin-CCTPTKMSPINMLYFNGK
Source text: as §1

[13] = molecular target: T13, hGDF8 peptide 7 (52-65), C-terminal biotinylated (human)
T13 construct: also called peptide 7 C-term
T13 peptide: LQKYPHTHLVHQAN-biotin
Source text: as §1

[14] = molecular target: T14, hGDF8 peptide 2 (1-18), unmodified (human)
T14 peptide: DFGLDCDEHSTESRCCRY
Source text: as §1

[15] = molecular target: T15, hGDF8 peptide 13 (75-105), C-terminal biotinylated (human, C-terminal biotin)
T15 construct: also called peptide 13 C-term
T15 peptide: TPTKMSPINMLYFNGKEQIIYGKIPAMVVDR
Source text: as §1

[16] = molecular target: T16, hGDF8 peptide 10 (56-72), unmodified (human)
T16 peptide: PHTHLVHQANPRGSAGP
Source text: as §1

[17] = molecular target: T17, hGDF8 peptide 14 (91-105), C-terminal biotinylated (human)
T17 construct: also called peptide 14 C-term
T17 peptide: EQIIYGKIPAMVVDR-biotin
Source text: as §1

[18] = molecular target: T18, hGDF8 peptide 11 (65-72), N-terminal biotinylated (human)
T18 construct: also called peptide 11 N-term
T18 peptide: Biotin-NPRGSAGP
Source text: as §1

[19] = molecular target: T19, hGDF8 peptide 13 (75-105), N-terminal biotinylated (human, N-terminal biotin)
T19 construct: also called peptide 13 N-term
T19 peptide: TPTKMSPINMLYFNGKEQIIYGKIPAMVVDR
Source text: as §1

[20] = molecular target: T20, hGDF8 peptide 1 (1-14), C-terminal biotinylated (human)
T20 construct: also called peptide 1 C-term
T20 peptide: DFGLDCDEHSTESR-biotin
Source text: as §1

[21] = molecular target: T21, hGDF8 peptide 3 (17-42), unmodified (human)
T21 peptide: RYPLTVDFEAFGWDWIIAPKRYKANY
Source text: as §1

[22] = molecular target: T22, hGDF8 peptide 11 (65-72), C-terminal biotinylated (human)
T22 construct: also called peptide 11 C-term
T22 peptide: NPRGSAGP-biotin
Source text: as §1

[23] = molecular target: T23, hGDF8 peptide 4 (48-65), C-terminal biotinylated (human)
T23 construct: also called peptide 4 C-term
T23 peptide: EFVFLQKYPHTHLVHQAN-biotin
Source text: as §1

[24] = molecular target: T24, hGDF8 peptide 5 (48-69), C-terminal biotinylated (human, C-terminal biotin)
T24 construct: also called peptide 5 C-term
T24 peptide: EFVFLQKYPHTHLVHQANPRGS
Source text: as §1

[25] = molecular target: T25, hGDF8 peptide 6 (48-72), unmodified (human)
T25 construct: also called peptide fragment 48-72 amino acids
T25 peptide: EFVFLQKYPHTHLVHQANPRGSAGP
Source text: as §1

Measured: binding result

B1: H4H1657N2 (antibody, V domains shown)
VH: EVQVLESGGDLVQPGGSLRLSCAASGFTFSAYAMTWVRQAPGKGLEWVSAISGSGGSAYYADSVKGRFTISRDNSKNTVYLQMNSLRAEDTAVYYCAKDGAWKMSGLDVWGQGTTVIVSS
VL: DIQMTQSPASLSASVGDRVTITCRASQDISDYLAWYQQKPGKIPRLLIYTTSTLQSGVPSRFRGSGSGTDFTLTISSLQPEDVATYYCQKYDSAPLTFGGGTKVEIK
notes: captured by anti-hFc, so human Fc
no binding (tested: 2.5 µg/ml): all assays above
